This data set is described as follows: yeast display, Sf9 membrane polyspecificity reagent, FACS + sequencing; frameworks hold sequencing errors. Put shortly:
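Genes from sorted yeast were amplified by colony PCR, read by MiSeq 2 × 250 sequencing and filtered on CDR length. These cells carried a synthetic nanobody library in Saccharomyces cerevisiae BJ5465 and were sorted by FACS into low and high (top ~1%) gates on anti-HA and streptavidin fluorescence. Polyreactivity is labelled according to the gate of origin.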
Turning to “QVQLVESGGGLVQAGGSLRLSCAASGSTFSHYTMGWSRQAPGKERELVAAINYGGASTYYADSVKGRFTISRDNAKNTVFLHMNSLKPEDTSVYYCAAANRPSEQDNYWGQGTQVTVSS”, the “polyreactivity (PSR sort gate)” value is reported as “low polyreactivity”.

Consider “QVQLVESGGGLVQAGGSLRLSCAASGSTFSKNAMGWYREAPGKERELVAAISGSGGSTYYADSVKGRFTISRDNAKKTVYLQMNSLKPEESAVYYCAARYSGRRYGYWGQGTQVTVSS”, for which the “polyreactivity (PSR sort gate)” value was “high polyreactivity”.

On to “QVQLVESGGGLVQAGGSLRLSCAASGSTFSKNAMGWYRQAPGKERELVASISTDGDSTYYADSVKGRFTISRDNAKNTVYFQMNSLKPEDTAVYYCNVVYYGRTWVPYVWEYDYWGQGTQVTVSS”, for which the “polyreactivity (PSR sort gate)” value is recorded as “low polyreactivity”.

Consider “QVQLVESGGGLVQAGGSLRLSCAASGSTFSKYAMGWYRQAPGKERELVATISSTGSTNYADSVKGRFTISRDNEKNTVYLQMNSLKPEDTAVYDCNAGRRGRPYYKYYYWGQGTQVTVSS”, for which the “polyreactivity (PSR sort gate)” value is “high polyreactivity”.

For “QVQLVESGGGLVQAGGSLRLSCAASGSTFSKYAMGWYRQAPWKESELVASITWSGGSTYYADSVKGRFTISRDNAKNTVYLQMNSLIPEDTAVYYCNVRTIQYNVGRWWEYDYWGQVTQVTVSS”, the “polyreactivity (PSR sort gate)” value is given as “low polyreactivity”.

Take “QVQLVESGGGLVQAGGSLRLSCAASGSTFSLNDMGWYRQAPGKERELVAVISSSTGITYYADSVKGRFTISRDNAKNTVYLQMNSLKPEDTAVYYCNADKWEVYYTRMYYWGQGTQVTVSS”: the “polyreactivity (PSR sort gate)” value is given as “low polyreactivity”.

In the case of “QVQLVESGGGLVQAGGSLRLSCAASGSTFSLNDRGWYRQAPGKERELVAVISSSTGITYYADSVKGRFTISRDNAKYTVYLQMNSLKPEDTAVYYCNADKWEVYYTRMYYWGQGTQVTVSS”, the “polyreactivity (PSR sort gate)” value is “low polyreactivity”.

Consider “QVQLVESGGGLVQAGGSLRLSCAASGSTFSLYAMGWYRQAPGKERELVAAISKRGDDTYYADSVKGRFTISRDNAKNTVYLQMNSLKPEDTAVYYCAAEYAAYEYRYWWYDYWGQGTQVTVSS”, for which the “polyreactivity (PSR sort gate)” value is given as “high polyreactivity”.

Take “QVQLVESGGGLVQAGGSLRLSCAASGSTFSLYAMGWYRQAPGKERELVADINSGGGTYYADSVKGRFTISRDNAKNTVYLQMNSLKPEDTAVYYCTAASSWSYFWYDYWGQGTQVTVSS”: the “polyreactivity (PSR sort gate)” value is recorded as “high polyreactivity”.

“QVQLVESGGGLVQAGGSLRLSCAASGSTFSNNARGWYRQAPGKERELVAAISRSGGSTYYADSVKGRFTISRDNAKNTVYLQMNSLKPEDTAVYYCAAYAPYYRTMDYWGQGTQVTVSS”: the “polyreactivity (PSR sort gate)” value is “high polyreactivity”.

For the sequence “QVQLVESGGGLVQAGGSLRLSCAASGSTFSNYAMGWYRQAPGKERELVASISNGGSTNYADSVKGRFTISRDNAKNNVYLQMNSLKPEDTAVYYCNAESKAKYDYWGQGTQVTVSS”, the “polyreactivity (PSR sort gate)” value is recorded as “low polyreactivity”.

As for “QVQLVESGGGLVQAGGSLRLSCAASGSTFSPNAMGWYRQAPGKERELVAAITYRGANTYYADSVKGRFTISRDNEKNTVYLQMNSLKPEDTAVYYCAAEYAYHHVGFGYWGQGTQVTVSS”, the “polyreactivity (PSR sort gate)” value is “low polyreactivity”.

As for “QVQLVESGGGLVQAGGSLRLSCAASGSTFSPYAMGWYRQAPGKERELVANITISGGSTYYADSVKGRFTISRDNAKNTVYLQMNSLKPEDTAVYYCNADSLIRWLFTVVIFDYWGQGTEVTVSS”, the “polyreactivity (PSR sort gate)” value is “low polyreactivity”.

Take “QVQLVESGGGLVQAGGSLRLSCAASGSTFSQNAMGWYRQAPGKERELVAAITSGGITYYADSVKGRFTISRDNAKNTVYLQMNSLKPEDTAVYYCAADFWPSGRGVAFDYWGQGTQVTVSS”: the “polyreactivity (PSR sort gate)” value is “low polyreactivity”.

For the sequence “QVQLVESGGGLVQAGGSLRLSCAASGSTFSQYAMGWYRQAPWKERELVAAITSTGGSTYYADSVKGRFTISRDNAKNTVYLQMNSLKPEDTAVYYCYPYIRDPKYNYWGQATQVTVSS”, the “polyreactivity (PSR sort gate)” value is recorded as “low polyreactivity”.

In the case of “QVQLVESGGGLVQAGGSLRLSCAASGSTFSQYVMGWYRQAPAKERELVAAISSGGSTYYADSVKGRFTISRDNAKNTVYLQMNSLKPEDTAVYYCAAKYDGSYVGLYWYSMNYWGQGTQVTVSS”, the “polyreactivity (PSR sort gate)” value is listed as “low polyreactivity”.

On to “QVQLVESGGGLVQAGGSLRLSCAASGSTFSRNAMGWSRQAPGKERELVAAISWRGGRTYYADSVKGRFTISRDNAKNTVYLQMNSLKPEDTAVYYCAAEHKYRYDYWGQGTQVTVSS”, for which the “polyreactivity (PSR sort gate)” value is “low polyreactivity”.

For the sequence “QVQLVESGGGLVQAGGSLRLSCAASGSTFSRNAMGWYRQAPGKERELVAAINYSGGITYYADSVKGRFTISRDNAKNTVYLQMNSLKPADTAVYYCAKRGIGDPGQHPLGFGYWGQGTQVTVSS”, the “polyreactivity (PSR sort gate)” value is given as “low polyreactivity”.

With “QVQLVESGGGLVQAGGSLRLSCAASGSTFSRYAMGWYRQAPGKERELVAAISSNGGRTYYADSVKGRFTISRDNAKNTVYLQMNSLKPEDTAVYYCAAVNYLTMDYWGQGTQVTVSS”, the “polyreactivity (PSR sort gate)” value is listed as “high polyreactivity”.

Turning to “QVQLVESGGGLVQAGGSLRLSCAASGSTFSRYAMGWYRQAPGKERELVAAISSRGGSTYYADSVKGRFTISRDNAKNTVYLQMNSLKPEDTAVYYCNALSSYQNHVYPYDYWGQGTQVTVSS”, the “polyreactivity (PSR sort gate)” value is on record as “high polyreactivity”.

As for “QVQLVESGGGLVQAGGSLRLSCAASGSTFSRYAMGWYRQAPGKERELVAAISTRGGSTRYADSVKGRFTISRDNAKNTVYLQMNSLKPEDTAVYYCAALGQGRTSATSFVDYEYWGQGTQVTVSS”, the “polyreactivity (PSR sort gate)” value is “high polyreactivity”.

Regarding “QVQLVESGGGLVQAGGSLRLSCAASGSTFSRYAMGWYRQAPGKERELVAAITRSGGSTYYADSVKGRFTISRDNAKNTVYLQMNSLKPEDTAVYYCAASRGRGGYGFDYWGQGTQVTVSS”, the “polyreactivity (PSR sort gate)” value was “high polyreactivity”.

“QVQLVESGGGLVQAGGSLRLSCAASGSTFSSLIMGCYRQAPGKERELVAAISRSGGRTYYADSVKGRFTISRDNAKNTVYLQMNSLKPEDTAVYYCAADYVSVDRIRYGYWGQGTQVTVSS”: the “polyreactivity (PSR sort gate)” value is “high polyreactivity”.

Consider “QVQLVESGGGLVQAGGSLRLSCAASGSTFSSNAMGWYRKAPGKERELVAAISVNGGSTNYADSVKGRFTISRDNAKNTVYLQMNSLKPEDTAVYYCAAEPAKVAFYRGDYWGQGTQVTVSS”, for which the “polyreactivity (PSR sort gate)” value is “low polyreactivity”.

On to “QVQLVESGGGLVQAGGSLRLSCAASGSTFSSNAMGWYRQAPGKERELVAAISWSGASTYYADSVKGRFTISRDNAKNTVYLQMNSLKPEDTAVYYCATVWQAKYYGNHRFGYWGQGTQVTVSS”, for which the “polyreactivity (PSR sort gate)” value is “low polyreactivity”.

“QVQLVESGGGLVQAGGSLRLSCAASGSTFSSNAMGWYRQAPGKERELVAAITTSGGSTYYADSVKGRFTISRDNAKNTVYLEMNSLKPEDTAVYYCAADLVHASQWSIFLYGYWGQGTQVTVSS”: the “polyreactivity (PSR sort gate)” value was “low polyreactivity”.

Regarding “QVQLVESGGGLVQAGGSLRLSCAASGSTFSSSAMGWYRQAAGKERELVAAITSSGGSPYYADSVKGRLTISRDNAKNTVYLQMNSLKPEDTAVYYCAAADVIFWLYYYWGQGTQLTVSS”, the “polyreactivity (PSR sort gate)” value is reported as “low polyreactivity”.

Turning to “QVQLVESGGGLVQAGGSLRLSCAASGSTFSSYAMGWYRQAPGKEREFVAAINTDGGSTYYADSVKGRFTISRDNAKNTVYLQMNSLKPEDTAVYYCAARYYWPWYSSYDYWGQGTQVTVSS”, the “polyreactivity (PSR sort gate)” value was “low polyreactivity”.

As to “QVQLVESGGGLVQAGGSLRLSCAASGSTFSSYAMGWYRQAPGKERELVAAISKHAGSTYYADSVKGRFTISRDNAKNTVYLQMNSLKPEDTAVYYCAKDSSVQAYYGYWYTSTDDYWGQGTQVTVSS”, the “polyreactivity (PSR sort gate)” value was “low polyreactivity”.

As for “QVQLVESGGGLVQAGGSLRLSCAASGSTFSSYAMGWYRQAPGKERELVAAISSRGGRTYYADSVKGRFTISRDNAKNTVYLQMNSLKPEDTAVYYCAVVPFTEHDYWGQGTQVTVSS”, the “polyreactivity (PSR sort gate)” value is reported as “high polyreactivity”.

As for “QVQLVESGGGLVQAGGSLRLSCAASGSTFSSYAMGWYRQAPGKERELVAGISWGGSSTDYADSVKGRFTISRDNAKNTVYLQMNSLKPEDTAVYYCARRYRRGWSTLDYWGQGTQVTVSS”, the “polyreactivity (PSR sort gate)” value is recorded as “low polyreactivity”.

Take “QVQLVESGGGLVQAGGSLRLSCAASGSTFSSYTMGWYRQAPGKERELVAAISRSGGRTYYADSVKGRFTISRDNAKNTVYLQMNSLKPEDTAVYYCNAGLGIEYDYWGQGTQVTVSS”: the “polyreactivity (PSR sort gate)” value is “low polyreactivity”.

“QVQLVESGGGLVQAGGSLRLSCAASGSTFSSYVMGWDRQAPGKERELVAAISSIGGSTYYADSVKGRFTISRDNAKNTVYLQMNSQKPEDTAVYYCPAEPPGSTYEGGYWGQGTQVTVSS”: the “polyreactivity (PSR sort gate)” value is given as “low polyreactivity”.

On to “QVQLVESGGGLVQAGGSLRLSCAASGSTFSTNAMGWYRPAPGKERELVAAISRSGGSTYYADSVKGRFTHSRDNEKNTVYLHMNSLKPEDTAVYYCARVSGYRYDYWGQGTQVTVSS”, for which the “polyreactivity (PSR sort gate)” value is “high polyreactivity”.

Turning to “QVQLVESGGGLVQAGGSLRLSCAASGSTFSTNAMGWYRQAPGKERELVAAIRWRGGRTYYADSVKGRFTISRDNAKNTVYLQMNSLKPEDTAVYYCAADYSFTGHRYTYGYWGQGTQVTVSS”, the “polyreactivity (PSR sort gate)” value was “high polyreactivity”.

Consider “QVQLVESGGGLVQAGGSLRLSCAASGSTFSTNAMGWYRQAPGKERELVAAISRSGGSTYYADSVKGRFTISRDNAKNTVYLQMNSLKPEDTAVYYCARYSYRGTNVRYDYWGQGTQVTVSS”, for which the “polyreactivity (PSR sort gate)” value is “high polyreactivity”.

Take “QVQLVESGGGLVQAGGSLRLSCAASGSTFSTNAMGWYRQAPGKERELVAAISWSDDDTYYADSVKGRFTISRDNAKNTVYLQMNSLKPEDTGVYYCAAEGVGPARVYQGGEYNYWGQGTQVTVSS”: the “polyreactivity (PSR sort gate)” value was “low polyreactivity”.

With “QVQLVESGGGLVQAGGSLRLSCAASGSTFSTNAMGWYRQAPGKERELVASITRSGGSTYYADSVKGRFTISRDNAKNTFYLLMNSLKPEDTAVYYCNADGYYDYDYGYWGQGTQVTVSS”, the “polyreactivity (PSR sort gate)” value is recorded as “low polyreactivity”.

With “QVQLVESGGGLVQAGGSLRLSCAASGSTFSTNVMGWYRQAPGKERELVAAISTIGGSTYADSVKGRFTISRDNAKNTVYLQMNSQKPEDTAVYYCAKRSRYPYYPYGYWGQGTQVTVSS”, the “polyreactivity (PSR sort gate)” value was “high polyreactivity”.

In the case of “QVQLVESGGGLVQAGGSLRLSCAASGSTFSVNAMGRYRQATGKERELVATISGGITNYADSVKGRFTISRDNAKNTVYLQMNSLKPEDTAVYYCNTAYRHIWVTWAAYDYWGQGTQVTVSS”, the “polyreactivity (PSR sort gate)” value is “low polyreactivity”.

Take “QVQLVESGGGLVQAGGSLRLSCAASGSTFSVNAMGWYRQAPGKERELVAAISSTGSTKYADSVKGRFTISRDNAKNTVYLQIISLKPEDTAVYCAASNADYEYYPFSDWYFSPYDYWGQGTQVTVSS”: the “polyreactivity (PSR sort gate)” value is recorded as “low polyreactivity”.

The values above are taken from the nanobody polyreactivity screen of Harvey et al. (2022).
